Here are results for 2 molecules from patent US20200078441A1.

In test [1] the target is T1, recombinant His-tagged AGO2 protein (human Argonaute 2, baculovirus-expressed) (human), Q9UKV8.
Test [2] deals with T1, recombinant His-tagged AGO2 protein …. Nature of the test: TAT-26 peptide.
The target is the same in test [3]. Nature of the test: TAT-11 peptide.

T1 sequence (Q9UKV8 other isoform, or with tags, fused parts or gaps limits assumed): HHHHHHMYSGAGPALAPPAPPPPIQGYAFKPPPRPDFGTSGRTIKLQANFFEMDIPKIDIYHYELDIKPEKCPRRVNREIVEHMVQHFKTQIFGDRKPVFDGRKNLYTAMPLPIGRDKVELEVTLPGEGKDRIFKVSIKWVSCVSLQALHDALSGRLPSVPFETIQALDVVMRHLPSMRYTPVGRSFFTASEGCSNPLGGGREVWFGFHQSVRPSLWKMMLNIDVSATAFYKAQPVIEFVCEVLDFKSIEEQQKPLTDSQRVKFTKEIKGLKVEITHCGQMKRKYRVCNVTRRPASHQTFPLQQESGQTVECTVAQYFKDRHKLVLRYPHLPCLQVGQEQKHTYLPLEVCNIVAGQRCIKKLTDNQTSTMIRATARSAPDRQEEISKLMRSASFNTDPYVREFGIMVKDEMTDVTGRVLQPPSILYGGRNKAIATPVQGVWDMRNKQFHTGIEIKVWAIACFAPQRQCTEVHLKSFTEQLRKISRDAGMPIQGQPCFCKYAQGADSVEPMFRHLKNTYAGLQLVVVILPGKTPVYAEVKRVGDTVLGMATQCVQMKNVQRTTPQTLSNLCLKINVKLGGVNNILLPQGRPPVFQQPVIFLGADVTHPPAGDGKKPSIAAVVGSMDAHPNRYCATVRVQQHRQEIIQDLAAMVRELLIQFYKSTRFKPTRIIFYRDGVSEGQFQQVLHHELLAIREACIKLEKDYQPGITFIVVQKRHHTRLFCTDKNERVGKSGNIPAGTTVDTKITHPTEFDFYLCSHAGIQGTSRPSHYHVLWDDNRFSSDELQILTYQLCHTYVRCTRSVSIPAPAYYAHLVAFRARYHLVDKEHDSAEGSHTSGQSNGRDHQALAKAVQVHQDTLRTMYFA

B1: TAT-26 decoy peptide (MSI1 peptide 26 with HIV-1 Tat (48-60) cell-penetrating peptide) (peptide)
peptide: HSLGGPLIATAFTNGGRKKRRQRRRPPQ
modifications: not checked
Consider B1, for which, in test [1], the dissociation rate constant (koff) amounted to 0.00226 s⁻¹ and the kon stood at 488 M⁻¹ s⁻¹. The dissociation constant Kd in test [2] worked out at 4.63 µM.

B2: TAT-11 decoy peptide (MSI1 peptide 11 with HIV-1 Tat (48-60) cell-penetrating peptide) (peptide)
peptide: YQFPEFRVERTPLPSGRKKRRQRRRPPQ
modifications: not checked
For the molecule B2, the Kd in test [3] was determined as 3.33 µM. Moreover, in test [1], the koff amounted to 0.00274 s⁻¹ and the kon is 823 M⁻¹ s⁻¹.

As a reminder, the koff is the first-order rate constant of dissociation. Usually kon stands for the second-order rate constant of association. What is called Kd is the constant that tells how readily two partners part at equilibrium.
